Experiments:
[1] = biological target: T1, LytT (His6-LytT) (Bacillus subtilis (168?)) (UniProt P94514); assay: EMSA; settings: EMSA: LytT with 50 ng DNA and 50 µg/ml poly(dI-dC); CcpA with 10 ng DNA and 400 µg/ml salmon sperm DNA; 6% or 8% native acrylamide gel in TAE; binding buffer …
T1 sequence: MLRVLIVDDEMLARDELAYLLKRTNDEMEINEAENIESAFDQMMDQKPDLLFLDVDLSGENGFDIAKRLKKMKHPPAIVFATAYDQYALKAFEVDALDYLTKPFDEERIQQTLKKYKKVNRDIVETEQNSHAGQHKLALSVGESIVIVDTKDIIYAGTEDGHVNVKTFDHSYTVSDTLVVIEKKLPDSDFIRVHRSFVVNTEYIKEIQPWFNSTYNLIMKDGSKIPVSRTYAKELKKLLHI

[2] = biological target: T2, PftAB (YsbAB) pyruvate-facilitated transporter (Bacillus subtilis, UniProt P94515+P94516); assay: transport in growing cells, extracellular pyruvate by HPLC, fit of facilitated transport model; assay type: cell-based; settings: B. subtilis cells, M9 minimal medium; model estimate of facilitated transport (Text S1, Table S2)
T2 construct: gene lrgA; full-length untagged pftAB in B. subtilis cells (WT, delta-pftAB, IPTG-inducible Phs-pftAB strains)
T2 sequence (P94515 whole entry): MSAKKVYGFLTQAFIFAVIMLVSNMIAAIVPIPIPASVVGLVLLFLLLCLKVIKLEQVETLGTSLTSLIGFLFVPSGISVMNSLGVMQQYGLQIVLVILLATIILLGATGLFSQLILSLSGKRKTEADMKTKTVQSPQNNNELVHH
T2 sequence (P94516 whole entry): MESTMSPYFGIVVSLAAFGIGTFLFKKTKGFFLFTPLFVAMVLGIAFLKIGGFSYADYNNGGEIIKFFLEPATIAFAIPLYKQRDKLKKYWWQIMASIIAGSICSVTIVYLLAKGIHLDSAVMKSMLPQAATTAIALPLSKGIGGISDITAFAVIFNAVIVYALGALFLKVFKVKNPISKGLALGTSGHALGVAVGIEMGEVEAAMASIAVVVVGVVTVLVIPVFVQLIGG

Compound | binding [1] | Km (apparent affinity constant) [2]
CCATGGTTTAATTCAACGTATAATCTGATCATGAAAGACGGATCGAAAATACCGGTCAGCCGGACATATGCGAAGGAATTGAAAAAGCTGCTCCATATTTGATGGGCGGCTTTTTGCATTTCAGCCATTTGATTCTGCAACTCAGACCCGCTATACGGCATGTTATCTTGTAAGCGCTTTATAACAGGGAATTCTTATTTATAATGAGGGTACCAAAGAGAAAGAGGTGAAGAAAATGAGTGCTAAAAAAGTGTACG (double strand) [PpftAB reporter strain fragment 267 bp] | binds | 
CC(=O)C(=O)O [pyruvate] |  | ~ 1.0 ± 0.1 mmol ⋅ liter^−1
CCATGGTTTAATTCAACGTATAATCTGATCATGAAAGACGGATCGAAAATACCGGTCAGCCGGACATATGCGAAGGAATTGAAAAAGCTGCTCCATATTTGATGGGCGGCTTTTTGCATTTCAGCCATTTGATTCTGCAACTCAGACCCGCTATACGGCATGTTATCTTGTAAGCGCTTTATAACAGGGAATTCTTATTTATAATGAGGGTACCAAAGAGAAAGAGGTGAAGAAAATGAGTGCTAAAAAAGTGTACG (double strand) [PpftAB 257 bp] | binds | 

— PMC5626966, “Molecular and Physiological Logics of the Pyruvate-Induced Response of a Novel Transporter in Bacillus subtilis” (mBio, 2017)
